Experimental findings from patent US20080085860A1 (Eli Lilly, published 2008) are described below.

The target of this experiment is T1, Rat VPAC1 receptor (rat, UniProt P30083 31-459).
T1 sequence (looked up): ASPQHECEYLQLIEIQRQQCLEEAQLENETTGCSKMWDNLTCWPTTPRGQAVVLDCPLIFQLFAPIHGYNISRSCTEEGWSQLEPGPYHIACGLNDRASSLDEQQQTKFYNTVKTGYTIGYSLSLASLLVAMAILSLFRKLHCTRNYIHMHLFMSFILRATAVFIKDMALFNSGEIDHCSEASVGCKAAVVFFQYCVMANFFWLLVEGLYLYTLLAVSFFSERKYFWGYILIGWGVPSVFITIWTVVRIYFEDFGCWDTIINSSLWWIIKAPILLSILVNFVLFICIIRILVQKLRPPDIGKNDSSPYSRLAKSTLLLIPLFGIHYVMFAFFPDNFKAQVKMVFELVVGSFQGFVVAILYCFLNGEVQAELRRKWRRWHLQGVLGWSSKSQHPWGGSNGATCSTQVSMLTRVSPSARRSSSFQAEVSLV
As to the kind of experiment: cell-based or functional assay.

* marks the point of attachment. Hexanoyl = CCCCCC(=O)*

B1: P136: C6-…(WPEG40K)-NH2 (SEQ ID NO: 44) (peptide)
peptide: Hexanoyl-HSDAVFTDNYTRLRKQVAAKKYLQSIKNSRTSPPPK-NH2
modifications: not fully specified (residue 36); printed as C6-HSDAVFTDNYTRLRKQVAAKKYLQSIKNSRTSPPPK(WPEG40K)-NH2
B1: the “EC50 (nm), in vitro potency using DiscoveRx (cAMP)” value is 15 nM.
